Assay results as given in patent US20240317859A1 (published 2024).

T1: FcγRIIB/C (CD32b/c) (FcγRIIB) (R&D Systems) (UniProt P31994 46-217)
T1 chain: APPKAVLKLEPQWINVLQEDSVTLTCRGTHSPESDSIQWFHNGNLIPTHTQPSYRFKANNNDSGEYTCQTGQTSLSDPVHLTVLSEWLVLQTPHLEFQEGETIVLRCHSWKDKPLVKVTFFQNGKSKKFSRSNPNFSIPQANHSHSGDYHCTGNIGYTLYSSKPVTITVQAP


What was measured:
[1] = target: T1, FcγRIIB/C (CD32b/c) (FcγRIIB) (R&D …); assay: SPR
[2] = target: Fc gamma RIIIA/CD16a, CF (FcγRIIIA(V158)) (R&D Systems); assay: SPR
Sequence of Fc gamma RIIIA/CD16a, CF (FcγRIIIA(V158)) (R&D Systems) (chain, as listed by the source): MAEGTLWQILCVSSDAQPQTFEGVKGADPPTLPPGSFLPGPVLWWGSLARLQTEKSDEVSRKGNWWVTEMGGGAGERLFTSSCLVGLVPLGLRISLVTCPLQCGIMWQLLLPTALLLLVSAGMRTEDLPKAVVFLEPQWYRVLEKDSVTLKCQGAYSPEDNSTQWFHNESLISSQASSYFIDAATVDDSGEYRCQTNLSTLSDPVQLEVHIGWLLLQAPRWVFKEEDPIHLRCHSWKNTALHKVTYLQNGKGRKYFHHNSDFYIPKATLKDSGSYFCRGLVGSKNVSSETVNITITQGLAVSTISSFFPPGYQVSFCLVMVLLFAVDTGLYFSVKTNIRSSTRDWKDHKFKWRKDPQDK

Kd [1]	Kd [2]	Binder
1.25 µM	3.03 µM	X4-K HM297-H5 (antibody) chain 1: QVQLVQSGPEVKKPGASVKIPCKASGYTFTDYNVDWVRQVPGQGLEWMGDIDPNNGGTIYNQKFKDRVTMTVDKSTRTAYMELRSLRSDDTAVYYCARWRGAMDYWGQGTLVTVSSASTKGPSVFPLAPSSKSTSGGTAALGCLVKDYFPEPVTVSWNSGALTSGVHTFPAVLQSSGLYSLSSVVTVPSSSLGTQTYICNVNHKPSNTKVDKKVEPKSCDKTHTCPPCPAPELLGGPDVFLFPPKPKDTLMISRTPEVTCVVVDVSDEDPEVKFNWYVDGVEVHNAKTKPREEQYNSTYRVVSVLTVLHQDWLNGKEYKCAVSNKAYPAPEEKTISKAKGQPREPQVYTLPPSRDELTKNQVSLTCLVKGFYPSDIAVEWESNGQPENNYKTTPPVLDSDGSFFLYSKLTVDKSRWQQGNVFSCSVMHEALHNHYTQKSLSLSPGK chain 2: DIQMTQSPSSLSASVGDRVTITCRASQDIDNYLKWYQQKPDGTVKLLIYDTSRLHSGVPSRFSGSGSGTDYTLTISSLKQEDFATYYCQQGYTLPWTFGQGTKLEIKRTVAAPSVFIFPPSDEQLKSGTASVVCLLNNFYPREAKVQWKVDNALQSGNSQESVTEQDSKDSTYSLSSTLTLSKADYEKHKVYACEVTHQGLSSPVTKSFNRGEC
1.29 µM	5.22 µM	X2-K HM297-H5 (antibody) chain 1: QVQLVQSGPEVKKPGASVKIPCKASGYTFTDYNVDWVRQVPGQGLEWMGDIDPNNGGTIYNQKFKDRVTMTVDKSTRTAYMELRSLRSDDTAVYYCARWRGAMDYWGQGTLVTVSSASTKGPSVFPLAPSSKSTSGGTAALGCLVKDYFPEPVTVSWNSGALTSGVHTFPAVLQSSGLYSLSSVVTVPSSSLGTQTYICNVNHKPSNTKVDKKVEPKSCDKTHTCPPCPAPELLDGPSVFLFPPKPKDTLMISRTPEVTCVVVDVSDEDPEVKFNWYVDGVEVHNAKTKPREEQYNSTYRVVSVLTVLHQDWLNGKEYKCAVSNKALPAPIEKTISKAKGQPREPQVYTLPPSRDELTKNQVSLTCLVKGFYPSDIAVEWESNGQPENNYKTTPPVLDSDGSFFLYSKLTVDKSRWQQGNVFSCSVMHEALHNHYTQKSLSLSPGK chain 2: DIQMTQSPSSLSASVGDRVTITCRASQDIDNYLKWYQQKPDGTVKLLIYDTSRLHSGVPSRFSGSGSGTDYTLTISSLKQEDFATYYCQQGYTLPWTFGQGTKLEIKRTVAAPSVFIFPPSDEQLKSGTASVVCLLNNFYPREAKVQWKVDNALQSGNSQESVTEQDSKDSTYSLSSTLTLSKADYEKHKVYACEVTHQGLSSPVTKSFNRGEC
1.43 µM		X3-KS HM297-H5 (antibody) chain 1: QVQLVQSGPEVKKPGASVKIPCKASGYTFTDYNVDWVRQVPGQGLEWMGDIDPNNGGTIYNQKFKDRVTMTVDKSTRTAYMELRSLRSDDTAVYYCARWRGAMDYWGQGTLVTVSSASTKGPSVFPLAPSSKSTSGGTAALGCLVKDYFPEPVTVSWNSGALTSGVHTFPAVLQSSGLYSLSSVVTVPSSSLGTQTYICNVNHKPSNTKVDKKVEPKSCDKTHTCPPCPAPELLGGPDVFLFPPKPKDTLMISRTPEVTCVVVDVGDEDPEVKFNWYVDGVEVHNAKTKPREEQYNSTYRVVSVLTVLHQDWLNGKEYKCAVSNKALPAPIEKTISKAKGQPREPQVYTLPPSRDELTKNQVSLTCLVKGFYPSDIAVEWESNGQPENNYKTTPPVLDSDGSFFLYSKLTVDKSRWQQGNVFSCSVMHEALHNHYTQKSLSLSPGK chain 2: DIQMTQSPSSLSASVGDRVTITCRASQDIDNYLKWYQQKPDGTVKLLIYDTSRLHSGVPSRFSGSGSGTDYTLTISSLKQEDFATYYCQQGYTLPWTFGQGTKLEIKRTVAAPSVFIFPPSDEQLKSGTASVVCLLNNFYPREAKVQWKVDNALQSGNSQESVTEQDSKDSTYSLSSTLTLSKADYEKHKVYACEVTHQGLSSPVTKSFNRGEC
2.54 µM		X3-KS HM268-K8 (antibody) chain 1: QVQLVQSGPEVKKPGASVKVVCKTSGYTFTSYYIQWLKQRPGQGLEWIGWIYFGDASTKYNEKFKGRVTMTADKSTSTAYMELRSLRSDDTAVYYCASYYGSYFDYWGQGTTVTVSSASTKGPSVFPLAPSSKSTSGGTAALGCLVKDYFPEPVTVSWNSGALTSGVHTFPAVLQSSGLYSLSSVVTVPSSSLGTQTYICNVNHKPSNTKVDKKVEPKSCDKTHTCPPCPAPELLGGPDVFLFPPKPKDTLMISRTPEVTCVVVDVGDEDPEVKFNWYVDGVEVHNAKTKPREEQYNSTYRVVSVLTVLHQDWLNGKEYKCAVSNKALPAPIEKTISKAKGQPREPQVYTLPPSRDELTKNQVSLTCLVKGFYPSDIAVEWESNGQPENNYKTTPPVLDSDGSFFLYSKLTVDKSRWQQGNVFSCSVMHEALHNHYTQKSLSLSPGK chain 2: DIQMTQSPSSLSASVGDRVTITCRASQDISNYLNWYQQKPDGTVKLLIYSTSRLHSGVPSRFSGSGSGTDYTLTISSLQPEDFATYYCQQGSTLPFTFGQGTKLEIKRTVAAPSVFIFPPSDEQLKSGTASVVCLLNNFYPREAKVQWKVDNALQSGNSQESVTEQDSKDSTYSLSSTLTLSKADYEKHKVYACEVTHQGLSSPVTKSFNRGEC
1.25 µM	4.27 µM	X2-K HM242-D3 (antibody) chain 1: QVQLVQSGPEVKKPGASVKVVCKASGYTFTSYYIQWVRQVPGQGLEWMGWIYPGDGTTKYNEKFKGRVTMTIDTSTSTAYMELRSLRSDDTAVYYCASYYGSYFDYWGQGTLVTVSSASTKGPSVFPLAPSSKSTSGGTAALGCLVKDYFPEPVTVSWNSGALTSGVHTFPAVLQSSGLYSLSSVVTVPSSSLGTQTYICNVNHKPSNTKVDKKVEPKSCDKTHTCPPCPAPELLDGPSVFLFPPKPKDTLMISRTPEVTCVVVDVSDEDPEVKFNWYVDGVEVHNAKTKPREEQYNSTYRVVSVLTVLHQDWLNGKEYKCAVSNKALPAPIEKTISKAKGQPREPQVYTLPPSRDELTKNQVSLTCLVKGFYPSDIAVEWESNGQPENNYKTTPPVLDSDGSFFLYSKLTVDKSRWQQGNVFSCSVMHEALHNHYTQKSLSLSPGK chain 2: not shown
0.957 µM	0.244 µM	X4-K HM242-D3 (antibody) chain 1: QVQLVQSGPEVKKPGASVKVVCKASGYTFTSYYIQWVRQVPGQGLEWMGWIYPGDGTTKYNEKFKGRVTMTIDTSTSTAYMELRSLRSDDTAVYYCASYYGSYFDYWGQGTLVTVSSASTKGPSVFPLAPSSKSTSGGTAALGCLVKDYFPEPVTVSWNSGALTSGVHTFPAVLQSSGLYSLSSVVTVPSSSLGTQTYICNVNHKPSNTKVDKKVEPKSCDKTHTCPPCPAPELLGGPDVFLFPPKPKDTLMISRTPEVTCVVVDVSDEDPEVKFNWYVDGVEVHNAKTKPREEQYNSTYRVVSVLTVLHQDWLNGKEYKCAVSNKAYPAPEEKTISKAKGQPREPQVYTLPPSRDELTKNQVSLTCLVKGFYPSDIAVEWESNGQPENNYKTTPPVLDSDGSFFLYSKLTVDKSRWQQGNVFSCSVMHEALHNHYTQKSLSLSPGK chain 2: not shown
0.606 µM	0.143 µM	X4-K HM242-C3 (antibody) chain 1: QVQLVQSGPEVKKPGASVKVVCKASGYTFTSYYIQWVKQRPGQGLEWIGWIYPGDGTTKYNEKFKGRVTMTIDKSTRTAYMELRSLRSDDTAVYYCASYYGSYFDYWGQGTLVTVSSASTKGPSVFPLAPSSKSTSGGTAALGCLVKDYFPEPVTVSWNSGALTSGVHTFPAVLQSSGLYSLSSVVTVPSSSLGTQTYICNVNHKPSNTKVDKKVEPKSCDKTHTCPPCPAPELLGGPDVFLFPPKPKDTLMISRTPEVTCVVVDVSDEDPEVKFNWYVDGVEVHNAKTKPREEQYNSTYRVVSVLTVLHQDWLNGKEYKCAVSNKAYPAPEEKTISKAKGQPREPQVYTLPPSRDELTKNQVSLTCLVKGFYPSDIAVEWESNGQPENNYKTTPPVLDSDGSFFLYSKLTVDKSRWQQGNVFSCSVMHEALHNHYTQKSLSLSPGK chain 2: not shown
2.74 µM		X3-KS HM242-D3 (antibody) chain 1: QVQLVQSGPEVKKPGASVKVVCKASGYTFTSYYIQWVRQVPGQGLEWMGWIYPGDGTTKYNEKFKGRVTMTIDTSTSTAYMELRSLRSDDTAVYYCASYYGSYFDYWGQGTLVTVSSASTKGPSVFPLAPSSKSTSGGTAALGCLVKDYFPEPVTVSWNSGALTSGVHTFPAVLQSSGLYSLSSVVTVPSSSLGTQTYICNVNHKPSNTKVDKKVEPKSCDKTHTCPPCPAPELLGGPDVFLFPPKPKDTLMISRTPEVTCVVVDVGDEDPEVKFNWYVDGVEVHNAKTKPREEQYNSTYRVVSVLTVLHQDWLNGKEYKCAVSNKALPAPIEKTISKAKGQPREPQVYTLPPSRDELTKNQVSLTCLVKGFYPSDIAVEWESNGQPENNYKTTPPVLDSDGSFFLYSKLTVDKSRWQQGNVFSCSVMHEALHNHYTQKSLSLSPGK chain 2: not shown
1.66 µM		X3-KS HM242-C3 (antibody) chain 1: QVQLVQSGPEVKKPGASVKVVCKASGYTFTSYYIQWVKQRPGQGLEWIGWIYPGDGTTKYNEKFKGRVTMTIDKSTRTAYMELRSLRSDDTAVYYCASYYGSYFDYWGQGTLVTVSSASTKGPSVFPLAPSSKSTSGGTAALGCLVKDYFPEPVTVSWNSGALTSGVHTFPAVLQSSGLYSLSSVVTVPSSSLGTQTYICNVNHKPSNTKVDKKVEPKSCDKTHTCPPCPAPELLGGPDVFLFPPKPKDTLMISRTPEVTCVVVDVGDEDPEVKFNWYVDGVEVHNAKTKPREEQYNSTYRVVSVLTVLHQDWLNGKEYKCAVSNKALPAPIEKTISKAKGQPREPQVYTLPPSRDELTKNQVSLTCLVKGFYPSDIAVEWESNGQPENNYKTTPPVLDSDGSFFLYSKLTVDKSRWQQGNVFSCSVMHEALHNHYTQKSLSLSPGK chain 2: not shown
1.21 µM		X2-K HM242-C3 (antibody) chain 1: QVQLVQSGPEVKKPGASVKVVCKASGYTFTSYYIQWVKQRPGQGLEWIGWIYPGDGTTKYNEKFKGRVTMTIDKSTRTAYMELRSLRSDDTAVYYCASYYGSYFDYWGQGTLVTVSSASTKGPSVFPLAPSSKSTSGGTAALGCLVKDYFPEPVTVSWNSGALTSGVHTFPAVLQSSGLYSLSSVVTVPSSSLGTQTYICNVNHKPSNTKVDKKVEPKSCDKTHTCPPCPAPELLDGPSVFLFPPKPKDTLMISRTPEVTCVVVDVSDEDPEVKFNWYVDGVEVHNAKTKPREEQYNSTYRVVSVLTVLHQDWLNGKEYKCAVSNKALPAPIEKTISKAKGQPREPQVYTLPPSRDELTKNQVSLTCLVKGFYPSDIAVEWESNGQPENNYKTTPPVLDSDGSFFLYSKLTVDKSRWQQGNVFSCSVMHEALHNHYTQKSLSLSPGK chain 2: not shown
